From patent publication EP1852441B1, “Agents that modulate EPH receptor activity” (The Burnham Institute, priority 2002, dated 2004)

Biological target: EphA4 Fc (EphA4 receptor extracellular domain fused to a human Fc region)
Test: inhibition of ephrin-A5 AP binding to EphA4

EphA4 Fc (EphA4 receptor extracellular domain fused to a human Fc region), sequence (Q03137 20-547): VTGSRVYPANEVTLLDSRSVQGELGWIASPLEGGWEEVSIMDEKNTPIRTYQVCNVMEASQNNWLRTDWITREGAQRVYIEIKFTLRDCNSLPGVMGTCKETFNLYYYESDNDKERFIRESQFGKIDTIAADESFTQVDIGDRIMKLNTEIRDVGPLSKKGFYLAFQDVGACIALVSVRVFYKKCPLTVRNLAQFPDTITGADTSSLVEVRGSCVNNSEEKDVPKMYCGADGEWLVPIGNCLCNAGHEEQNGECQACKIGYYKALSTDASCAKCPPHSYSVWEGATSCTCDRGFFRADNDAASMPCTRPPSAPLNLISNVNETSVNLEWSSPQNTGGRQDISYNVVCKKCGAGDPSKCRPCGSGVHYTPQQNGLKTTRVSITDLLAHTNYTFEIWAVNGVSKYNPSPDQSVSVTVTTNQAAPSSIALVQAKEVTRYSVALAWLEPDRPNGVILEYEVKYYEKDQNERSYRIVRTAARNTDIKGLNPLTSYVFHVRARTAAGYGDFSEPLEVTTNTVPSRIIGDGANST

concentration that almost completely inhibits ephrin-A5 AP binding | Substance
100 µM | synthetic VTM peptide (…)
1 µM | synthetic KYL peptide (…)
10 µM | synthetic APY peptide (…)
